Primed or numbered codes have the meaning given here. Where no end group is shown, it is not given here. PEG12′ = PEG spacer of 12 units between cholesterol and peptide
Assays:
[1] = target: T1, cholesterol-PEG12-(EIAALEK)4 (cholesterol-PEG12 anchor, as printed: cholesterol-PEG12-(EIAALEK)4); assay: single vesicle docking on planar pore-spanning membranes (two color confocal fluorescence microscopy); target reconstituted in pore-spanning membranes (DOPC/POPE/POPS/cholesterol 5:2:1:2, 1,000:1, Oregon Green DHPE), binder in Texas Red DHPE doped LUVs (1,000:1, 325 nm); buffer A (20 mM HEPES, 100 mM KCl, 1 mM DTT, pH 7.4); time series of 300 s; conditions: both partners purified
T1 construct: printed as (EIAALEK)4, written out four times; coiled coil forming lipidated peptide; also called SNARE fusion mimetic; lipopeptide; source: reconstituted into pore-spanning membranes
T1 peptide: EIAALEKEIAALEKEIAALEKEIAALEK

[2] = target: T2, syntaxin 1A (residues 183-288) (Rattus norvegicus, UniProt P32851 183-288); assay: assembly of the complex from purified proteins and purification by ion exchange chromatography (MonoQ); three purified proteins mixed with an excess of SNAP25a (1:1:1.5) in 1% CHAPS, over night at 7 °C, complex purified by MonoQ; conditions: both partners purified
T2 construct: syntaxin 1A, Rattus norvegicus, residues 183-288; source: E. coli BL21(DE3), pET28a, purified (Ni-NTA, MonoQ, 1% CHAPS); also reconstituted alone into pore-spanning membranes
T2 sequence (P32851 183-288): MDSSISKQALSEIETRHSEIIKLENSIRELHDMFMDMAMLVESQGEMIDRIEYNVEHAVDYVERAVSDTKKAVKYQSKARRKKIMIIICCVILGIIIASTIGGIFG

Binder	binding result [1]	binding result [2]
{cholesterol-PEG12′}-KIAALKEKIAALKEKIAALKEKIAALKE (printed as (KIAALKE)4, written out four times; coiled coil forming lipidated peptide; also called SNARE fusion mimetic; lipopeptide; source: reconstituted into large unilamellar vesicles) [cholesterol-PEG12-(KIAALKE)4]	binds	–
NVDKVLERDQKLSELDDRADALQAGASQFETSAAKLKRKYWWKNLKMM (domain or fragment, Rattus norvegicus, UniProt P63045 49-96, looked up, synaptobrevin 2, Rattus norvegicus, residues 49-96; also called C-terminal soluble fragment of synaptobrevin 2 (residues 49-96); soluble fragment of synaptobrevin 2; source: E. coli BL21(DE3), pET28a, purified (Ni-NTA, MonoS)) [synaptobrevin 2 (residues 49-96, soluble C-terminal fragment)]	–	binds
